Assay: soluble on expression in E. coli; label from the status in PepcDB or PDB records

Sequence	soluble on expression in E. coli
MAHHHHHHMDIGELPDDQFPGAQYIPDLHGLGRERQALSCKVHEMKIPGQVSPYHVPEGEESSERETLYDENGLPIRTNSNDQEGDKKLWSWTDDGKLKLLCSQPIIPVSVVQGILRRDKIILIPQVEVTDFVVPKIYNQNIKHDVPKLDIKVECSNVEIPNVKYVEKEIIIPIITGYTHKFIPKWDVHEVPRPVVKYIGEQKIVEVEVPEIKYIDKIVEREVVVDTVEKRVPKIIEIPKYVDEVKYVWKPIEKIVYIQKLVPKFDVNLECPPPLIVPYPVQTVKQIPPVMVRKDVKFPDCDYTDFNSPYGSLPIPREYVDYYTSRQKAQKGIFSNCCESNCKNGEDHHGGETYYDVSPSSAMGVSEESLQNELNICNSSNPFVNTSADSILNKGGPRQALDAACM	not soluble
MAHHHHHHMRHCHMSFAYCFCPFSAHRSASSQGYTRLMRRLSGSTCLLTGVTRAGRWLPTTAPCLSLCSFFLTASRRKQSTSGIGGDVRDIEETHPDFQPRLVSADLAEDEIAMVKKDIDDTIKSEDVVTFIKGLPEAPMCAYSKRMIDVLEALGLEYTSFDVLAHPVVRSYVKEVSEWPTIPQLFIKAEFVGGLDIVTKMLESGDLKKMLRDKGITCRDL	not soluble
MIREFSEDDIEPLATGAWILGTGGGGNPYISTLNLRRLYAEGRRVKVMDPMALADDDMVAVVSKMGAPLVGQERLGDPAHLARAVEVMEDYLGKPFRAIMSVEIGGSNALSSFLAAAVLDRPVVNADAMGRAYPEAQMTSFAIGNLPMFPLSLVDVRDNEVIVTRAASWKWMERISRKVCTEVGSTAATCKAPRTGKEVKEWGIHYTVTKATELGRAVMEARARHDDPVQAVLDHEGGKQLFRGKVVDVARETTGGFLRGSTTIEGIDADRGSRMELAFQNEWAVAFRDGQPVAMTPDLLCLLDTVSGGAIGTESVRYGQRVTVVALPAPELLTTPAGIDAVGPRAFGYDIDFRSVFPLEHHHHHH	soluble
MSQLEIRDLWASIDGETILKGVNLVVPKGEVHALMGPNGAGKSTLGKILAGDPEYTVERGEILLDGENILELSPDERARKGLFLAFQYPVEVPGVTIANFLRLALQAKLGREVGVAEFWTKVKKALELLDWDESYLSRYLNEGFSGGEKKRNEILQLLVLEPTYAVLDETDSGLDIDALKVVARGVNAMRGPNFGALVITHYQRILNYIQPDKVHVMMDGRVVATGGPELALELEAKGYEWLKEKVKEGA	soluble
GPGMASSPRPKMDAILTEAIKACFQKSGASVVAIRKYIIHKYPSLELERRGYLLKQALKRELNRGVIKQVKGKGASGSFVVVQKSRKT	soluble
MAEHEQVNWPYVNTKLKRDPAVEAQIEKLLAKMTIEQKVAQMIQPEIGYLTVEQMRKYGFGSYLNGGNTAPYGNKRADQATWLKYADEMYLAAMDSTLDGIAIPTVWGTDAMHGHSNVYGATLFPHNIGLGAARDTDLIKRIGQATAKEVAATGIEWSFAPTVAVVRDDRWGRTYESYSEDPDLVKRYAGEMVTGIQGDVGADFLKGSNRIATAKHFVGDGGTERGVDRGNTLIDEKGLRDIHSAGYFSAINQGVQSVMASFNSWNGKRVHGDKHLLTDVLKNQLGFDGFVVSDWNAHKFVEGCDLEQCAQAINAGVDVIMVPEHFEAFYHNTVKQVKAGVIAESRINDAVRRFLRAKIRWGVFTKSKPSARPESQHPQWLGAAEHRTLAREAVRKSLVLLKNNESILPIKASSRILVAGKGANAINMQAGGWSVSWQGTDNTNSDFPNATSIFSGLQSQVTKAGGKITLSESGEYTSKPDVAIVVIGEEPYAEWFGDIELLEFQHETKHALALLKQLKADNIPVVTVFLSGRPLWVNKELNASDAFVAAWLPGSEGEGVADVLLTNKQGKTQFDFTGKLSFSWPKYDDQFTLNLNDADYDPLFAYGYGLTYQDNINVPVLSEKTSPKKTVNSDSHPLFVRSLAKNMTWQLADTSTQKVLASGASATSGDKQSLLMQSVNLSYQEDGRGFNWRAQAALSLSYLEPTPLDSKFSTGYLELKMRIDKAPEQGANLQVMCSESNCLRDIDFSSFSQLMADKSWHTLAIPLHCDDSDQAEQPITDALRITSQNLSLAIADVALTIKPSDDSISLTCAKLEHHHHHH	soluble
NSFFKTGWKRFYLKWYGQDHPSAQALCPYTTELLKQFPNIKAAMFTALPPGSRLVRHRDPFAGSVRYHLGLITPNDDRCYIDVDGQQYSWRDGEAVIFDETYLHYAENTTDQNRIILFCDVERPMWFWPARVVNRIVSRVLVGAANSPN	not soluble
STVLDSLQHTGRGDKVYWFCYGMKCYYFVMDRKTWSGCKQTCQSSSLSLLKIDDEDELKFLQLVVPSDSCWVGLSYDNKKKDWAWIDNRPSKLALNTRKYNIRDGGCMLLSKTRLDNGNCDQVFICICGKRLDKFPH	soluble
MEDGRTSDKVLEKIQEKIFSGEWKPGQKIMSETKLAEDLNVSRVSVREAIEKLAAFNIVSKKKGGGTFINDLGPSVYLNSLLPMLILNRDNYLEILEFRLITEPESAKLCAERCDDELIISLEKIYDNMKNYKDDIQKFTKEDLNFHTKIAEGTKNSLIIKINELLMNILEYHQRGLYETLGPKGGICEHKFILDAIKNRDSELAFIYSRRHAERTINDLKKLQT	not soluble
MSLDGSVAAAGLGLGLPTTDSRGHYQLLLSGRALADRYRRIYTTALSDRDQAGSSTGHPASRNKKILNKKKLKRKQKSKSKVKTRSKSENVENTVIIPDIKLHSNPSAFNIYCNVRHCVLEWQKKETSLAAASKNSVQSGESDSDEEEESREPPIKLPKIIEVGLCEVFELIKETRFSHPSLCLRSLQALLNVLQGQQPEGLQSEPPEVLESLFQLLLEITVRSTGMNDSTGQSLTALSCACLFSLVASWGETGRTLQAISAILTNNGSHACQTIQVPTILNSLQRSVQAVLVGKIQVQDWFSNGIKKAALMHKWPLKEVSVDEDDQCLLQNDGFFLYLLCKDGLYKIGSGYSGTVRGHIYNSTSRIRNRKEKKSWLGYAQGYLLYRDLNNHSMTAIRISPETLEQDGTVLLPDCHTEGQNILFTDGEYINQIAASRDDGFVVRIFATSTEPVLQQELQLKLARKCLHACGISLFDLEKDLHIISTGFDEESAILGAGREFALMKTANGKIYYTGKYQSLGIKQGGPSAGKWVELPITKSPKIVHFSVGHDGSHALLVAEDGSVFFTGSASKGEDGESTKSRRQSKPYKPKKIIKMEGKIVVYTACNNGSSSVISKDGELYMFGKDAIYSDSSSLVSDLKGHFVTQVAMGKAHTCVLMKNGEVWTFGVNNKGQCGRDTGAMNQGGKGFGVENMATAMDEDLEEELDEKDEGHHHHHH	not soluble
SNADDMIILKGVNIFPIQIETILLQFKELGSDYLITLETAESNDEMTVEVELSQLFTDDYGRLQALTREITRQLKDEILVTPRVKLVPKGALPKSEGKAVRVKDLRKTF	soluble
MGSDKIHHHHHHMKIERLDKYIWKIPKEGDMKVDAIIFTDAESVNDPQFREAMKQLMNVATLPGIVKYALAMPDIHWGYGFPIGGVAAFDVKEGIISPGGVGFDINCGVRLMKTDLTYEDVKDRMRSLVEAIYEFVPAGVGSTGDIVLGKKGLRKVLVEGAEWAVKSGYGLEEDLERIEDGGKIHPADPSYVSEEAFERGSDELGTLGAGNHFVEVQMVQEIYDEELAEFFGLEIGTITVMIHSGSRGFGHQVATDYIRLMRDNLKEHNKNLPDKQLINAPFEHPLGQAYYSAMNCAANYAFANREILGHLVRKAFWKVFGRDTRVDLIYDVAHNIAKVEEYEVDGKRRKLVVHRKGATRSLGPGSEKVPSIYREVGQPVIIPGDMGTASYLLVGTKKAEEKTFGSTAHGAGRVLGRSAALKKLDYREVLDELAEKNIVVMSKSKKTLVEEAPEVYKDVDRVVQIVHEIGISRKVARMIPLGVVKG	not soluble
MKSCRSCKENPEVQRKRAEKPWRRAPKAKSEVEKHGIGPPDSDSGEEISFPWYNVTGKMLVVGMHVEIKRSDGRIHGAVIAEVKSNGRFMVEWYEKGETKGKESSLEELLTLNPSLQAPKPTPPPQPPQKTLQASTAVNRQNGIHAQSMILDDEDTFLLDHINMIPAKGASANKRPTGAFTQHVPVRMAPPSEKPLPTRRAPSPKEDAAPAPKSTRTTAAFKPDLDSTAITVPKHTARRTVVVAPAPAPVPAPPIANMTSQRAPSPVARVPSPKNVPRSYPQQDVQPSNGNFAFAEMIRNYRAQIDYRPLSMFDGVNENRISVCVRKRPLNKKELTKAEVDVITIPSRDITILHQPQTRVDLTKYLDNQKFRFDYSFDEYANNELVYRFTAAPLVKTVFDNGTATCFAYGQTGSGKTHTMGGDFSGKKQNASMGIYALTARDVFRMLEQPQYRRKDLSVHCAFFEIYGTKTYDLLNDKAELRVLEDKMQKVQVVGLKEEQAHNEQDVLELINKGTLVRTAGTTSANANSSRSHAIFQIILRQGKKVWGKFSLIDLAGNERGQDTRECDRDTRKEGANINTSLLALKECIRGMARNSSHVPFRQSKLTMVLRDSFIGEKSRTVMISMISPGISSSDHTLNTLRYADRVKEMGTDGSGEATPIRDEELFLPPSADKSDEEYDEMVEKQEHRRVAVDHVRNLKDMSEKIIRETTIVLSNEPSAAQKAECLAKLDQLAQIVSNTRVAVENV	soluble
MAHHHHHHMERGKNPMEAELNRAPQEVSLSAFSLLFSEIVQYCLWKSKRGYRIEDSLHEMGLRVGYKLNEYLPYKNKTKRCVNIISILTFLSKHLWKYLFQHSSDLLKSQDSIYEYMLCDKNILLNRFISVPKDYGNINCASFAAGIVEGMLCSAEFQAEVTAHTVYEDEKNFNTTIFIKFYPEVVNRERGEK	not soluble
SNAMTQFAFVFPGQGSQSVGMLAEMAANYPIVEETFAEASAALGYDLWALTQQGPAEELNKTWQTQPALLTASVALWRVWQQQGGKMPALMAGHSLGEYSALVCAGVINFADAVRLVEMRGKFMQEAVPEGTGGMSAIIGLDDASIAKACEESAEGQVVSPVNFNSPGQVVIAGHKEAVERAGAACKAAGAKRALPLPVSVPSHCALMKPAADKLAVELAKITFSAPTVPVVNNVDVKCETDAAAIRDALVRQLYNPVQWTKSVEFIAAQGVEHLYEVGPGKVLTGLTKRIVDTLTASALNEPAALSAALTQ	soluble
SEMIVDHRQKAFELLKVDAEKILKLIRVQMDNLTMPQCPLYEEVLDTQMFGLSREIDFAVRLGLVDEKDGKDLLYTLERELSALHDAFTAK	not soluble
MGSDKIHHHHHHLLYRTIMVGENLESMQCEKYFESLFDVDFDYLVGLGKEMPTILFIDASKYSKDVLNDWIFAFTNIILINNNPIRAFIIRGYSEELQEFKGYYRVVSSYKSPRQIVQEIISNVNDHLDKMIGNSSRVIQMKKMLVLSMFYDGSIMILGETGSGKNLLAEVIAKLSPRGSRPFYSINCAAIPENLLESEIFGYKKGAFTGATSEKVGLIEQANNGTLFLDEIGDMPLNLQAKILAITENREFFKIGATRPIKVDVRFITATNRYDDSAMRNDLRYRLSAVKIDLPPLRERKSDISLIFDEILEKKGYLVKFENIPQDLKERFLSYSYPGNVRELINMIEEYLAVNDVVQASVNSSMSKYVKVLAEEAIVARMVNGTSYKDFLQEVYKSVSQELLLQRSEVLKNDINEIAREFGLTTRRIRDLLAELNSSAKALTPNDDDE	not soluble
MPADDLQQALNNSQNGDVITLGPGSYFGNFIISNQVTLRSNNKGEAIIDSQGKGHGLWLKNSQITIENLTITNWGHDLTDQNSGIYSHGKIDNNKVPSLTIRNNILIGDGFGIWLNQADKAIISHNRVKGNLTLRSADRGNGIQVANVTNSHVFLNEVSETRDGVYVISSQNNIIEQNTMHHLRYGIHYMYSYDNTVKNNTAYDTRAGYALMSSRRLTITGNKTTNSEDYGFLLNFITQSTFSHNYVKNVWTKPENKVLGRDGKGLFVYNSGYNTVKHNIIDTAEIGIHLTAGSENIKIFGNSFINNPTQVKYVSNKKQEWSKDGRGNYWSNYLGWDMGNDGIGDTIFEPNDGIDKLVWQYPEMKMIMDSPAILILRWVQRQFPVLKPPGVKDSFPLMSAPSLTKNEQAATPLAVTTSTFTKSNSAQSANTTSASLKELEHHHHHH	soluble
